In PMC3229553 one finds percent of Cup pulled down data, which are given here for one molecule.

In this assay the target is Orb (Drosophila (endogenous in ovaries)). Briefly: co-IP; wild type ovary extract precipitated with Orb antibody coupled to protein A/G beads, room temperature 2 hours; Co-IP buffer 20 mM Hepes pH 7.5, 150 mM NaCl, 2.5 mM MgCl2, 250 mM sucrose, 0.05% NP40, 0.5% Triton-X, with RNase A; Western blot for Cup; HA antibody as negative control.

B1: Cup (natural protein)
chain: MQMAEAEQENGAGALKIATNAGATDRPAHQQLPLPVEDQQDEVLTPAEKGKFEYPPPPPPPTPVQAPLATKATALNASQEHDDDEANSEKWEDPCAPPPPPPLPTSAFLATGLGYLKLPAFKLKDALEKAITKLEANKRTLKASPESSRSIKNKNVVALEMLPRRSNPETIGDGSMLASTSTAVMLQTKKPAVIVEMERRCKIINLLAKQNQILESISGEAIPMHGPSKHLHEDEGLTLQVLSARASTPYTQPSSMLSCTAVSCDLEHDSPRKQVASKEAVPEQQSSQVQQKRPPSTGIHKPGSLRAPKAVRPTTAPVVSSKPVKSYTRSRLMDIRNGMFNALMHRSKESFVMPRIATCDDIELEGRLRRMNIWRTSDGTRFRTRSTTANLNMNNNNNNECMPAFFKNKNKPNLISDESIIQSQPPQPQTEFQDPAIVNQRRIGSGRLNHSKWGYNDEDYHSYHNGKSQHMEEVNSKNSKNMTVLQFFDNGEISSQPQRRPNTPVMGMSINRSENDTLHSNESSEDLSRANENYVKRVMSGFLVVSKPKSRDVEDRHHRRYRNQNEEPEWFSCGPTSRLDTIELCGFDEDEEKMLKEGNKNHGLGETERETSKQKMDHKYKWTHAEPMGRSKYMPKHDTNNNHNVENMNNVMATEHQQQKEEKRPGSGRSFQFDKFNQSQQNYESSSYVNHQQPPQTQPQQMQQQSNTNTNNSKFMSFFANEGNSSSSSLNEFFKQAINQGHGNNPEQPKSLGHIGQMPSVDQLEAKWRRNSLNNVGETANKQTDNFQKLIGSLSSAKPQSQAVGYDAISNFIMQQQQYQQQQQKQHLIIQQQQQHTAFLASLQLKAILGRADTQLLLLRLTKGEISKHGLLVQLANPRLTDMDREAITAVLQFTNTQQQQQQHKQQLDMLSSTVIASQLQNLHNLAIVQQTLAARQQPQHNPQTQAPHQLSQEDLQAHANVIMRNAVMKRKIEEQTSKLINGGAKHQAQQQYLNRGQQRQARPDANSNALLHALISGGGNNHASGYPMNGQPQKHHSNLRFGDNQNFQSFESNQPHFATQYKQQYQQSQQQHPHQQPQQLNSLHQNNAGAVNSFNKAQMQAQSAISMLPNSGDEFH
B1 showed a percent of Cup pulled down of 10%.
